Assay results taken from patent publication US20240368663A1, “CELL-FREE BIOPRODUCTION OF B-CRYPTOXANTHIN AND ZEAXANTHIN” (DEBUT BIOTECHNOLOGY, INC., priority 2021, published 2024).

What was measured:
[1] = cited from earlier work
[2] = Cell-free conversion of β-carotene to zeaxanthin with cell lysate expressing CrtZ; assay type: biochemical; settings: 1.67 mM β-carotene, 24 hours
Procedure: Enzyme Expression and Purification: All genes were synthesized and cloned into expression plasmids and then transformed into E. coli cells for expression. Cells were grown in Terrific Broth media supplemented with 50 μg/mL kanamycin sulfate at 37° C. and 200 rpm until A595=0.6. Cells were cooled to 18° C., protein expression was induced, and the cultures were grown for an additional 18 h. Cell pellets were collected by centrifugation, and then resuspended in a 1.8 mL lysis buffer (50 mM Tris pH 8.5, 150 mM NaCl, 10% Glycerol (v/v)) per gram of cell paste. Cell lysates were prepared by sonication and clarified by centrifugation at 11,000×g for 10 minutes, at 4° C. After clarification, lysate was kept on ice or flash frozen and stored at −80° C. for later use.
Analytical methods: For sampling, 5× volume of THE was mixed with the reaction fluid, followed by high-speed centrifugation. Samples were run on an HPLC system to examine the amount of β-cryptoxanthin and zeaxanthin present in the reaction mixture. The HPLC method was as follows: An Agilent 1200 HPLC was fitted with an Acclaim C-30 Column 250 mm×4.6 mm, 5 μm, equipped with an Acclaim C-30 guard column. The column was heated to 20° C. with the sample block being maintained at 20° C. For each sample, 10 μL was injected and the product was eluted at a flow rate of 1.0 ml/min using Methanol (solvent A) and tert-butyl-methyl ether (solvent B) with the following gradient: 80% A to 65% A for 10 min, 65% A to 10% A for 10 min, 10% A for 5 min, 10% A to 80% for 0.5 min, and 80% A for 5.5 min for column equilibration. The run time was a total of 31 minutes with zeaxanthin eluting at 7.2 mins, β-cryptoxanthin eluting at 12.2 minutes, and β-carotene eluting at 16.9 min. A diode array detector (DAD) was used for the detection of the molecule of interest at 450 nm.
As described herein, β-carotene is hydroxylated by the CrtZ enzyme (CrtZ, EC1.14.15.24) to form β-cryptoxanthin, and then β-cryptoxanthin is hydroxylated by CrtZ to form Zeaxanthin. […]

[3] = 2% polysorbate 20, 6% THE, 0.2 mM FeSO4, 16° C.

| Molecule | solubility in water [1] | β-carotene substrate converted into zeaxanthin ([2]; 2% polysorbate 20 (v/v), 6% THE (v/v), 0.2 mM FeSO4, concentrated cell lysate, 16° C.) | zeaxanthin concentration produced [2, 3] [mM] | zeaxanthin titer produced [2, 3] [mg/L] |
| --- | --- | --- | --- | --- |
| CC1=C(/C=C/C(C)=C/C=C/C(C)=C/C=C/C=C(C)/C=C/C=C(C)/C=C/C2=C(C)CCCC2(C)C)C(C)(C)CCC1 [β-carotene] | insoluble in water |  |  |  |
| CC1=C(/C=C/C(C)=C/C=C/C(C)=C/C=C/C=C(C)/C=C/C=C(C)/C=C/C2=C(C)C[C@@H](O)CC2(C)C)C(C)(C)CCC1 [β-cryptoxanthin] | insoluble in water |  |  |  |
| P. ananatis CrtZ: β-carotene hydroxylase enzyme (CrtZ, EC1.14.15.24) from P. ananatis, used as E. coli cell lysate; likely Pantoea WP_013027996.1 (protein, listed as Pantoea sp.) MLWIWNALIVFVTVIGMEVVAALAHKYIMHGWGWGWHLSHHEPRKGAFEVNDLYAVVFAALSILLIYLGSTGMWPLQWIGAGMTAYGLLYFMVHDGLVHQRWPFRYIPRKGYLKRLYMAHRMHHAVRGKEGCVSFGFLYAPPLSKLQATLRERHGARAGAARDAQGGEDEPASGK |  | 84 % (molar ratio) | ~1.4 | 796 |
